Five substances from patent US20240384326 can be followed below.

The subject of series [1] is anti-inosine antibody Ab10. In words: ELONA.
The subject of another series is anti-m6A antibody Ab02. In words: ELONA.
The subject of the next series is anti-m6A antibody Ab01. In words: ELONA.
Series [2] concerns anti-pseudouridine antibody Ab19. Description: ELONA. Conditions: unmodified control.
The test system of the next series is anti-m6A antibody Ab05. In words: ELONA.
A further series deals with anti-m5C antibody Ab16. Description: ELONA.
For series [3], the system named is anti-pseudouridine antibody Ab11. Description: ELONA. Particulars: unmodified control.
For series [4], the target named is APOBEC3A (E109A/E109Q as variously stated), no fusion E109A (Homo sapiens) (UniProt P31941). In words: cleavage_in_vitro. Conditions: USER assay, 10 mM MgCl2, pH 7, 37C.
The subject of series [5] is Ab05 randomly labeled with DNA adapter (HyNic). Description: ELONA. Conditions: m6A at position 9; random HyNic labeling.
Where [6] appears, read: m6A at position 9, plate ELISA, avidity, stated only as subnanomolar.

Chain of APOBEC3A (E109A/E109Q as variously stated), no fusion E109A (Homo sapiens) (P31941 whole entry E109A, the tested form may be a part): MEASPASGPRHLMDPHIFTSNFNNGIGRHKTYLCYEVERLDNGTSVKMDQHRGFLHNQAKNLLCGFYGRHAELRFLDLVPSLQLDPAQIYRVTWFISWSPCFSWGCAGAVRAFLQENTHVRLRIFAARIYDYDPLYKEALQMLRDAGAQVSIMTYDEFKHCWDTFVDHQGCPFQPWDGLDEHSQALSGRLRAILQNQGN

In [1] (inosine at position 9, plate ELISA, avidity, stated only as subnanomolar), “NNNNNNNNINNNNNNNN [inosine degenerate RNA (SEQ ID NO: 2 in Table 4)]” had a Kd of less than 1 nM.

Turning to “NNNNNNNNNNNNNNNN [unmodified degenerate reference RNA (SEQ ID NO: 5)]”, the binding signal (fold weaker than cognate) in the series on anti-m6A antibody Ab02 (unmodified control) is greater than 100; in the series with anti-m6A antibody Ab01 (unmodified control), greater than 100; in series [1] (unmodified control) it was greater than 100; in series [2], 10; in the series with anti-m6A antibody Ab05 (unmodified control) it was greater than 100; in the series with anti-m5C antibody Ab16 (unmodified control) it was greater than 100. The substance also came in with a binding signal (fold weaker than cognate) in series [3] of 10.

Substance “NNNNNNNNCNNNNNNNN [m5C degenerate RNA (SEQ ID NO: 4)]” showed a Kd in the series on anti-m5C antibody Ab16 (m5C at position 9, plate ELISA, avidity, stated only as subnanomolar) of less than 1 nM.

Turning to “FAM-DNA oligonucleotide with a single central C”, in series [4], the activity (fold vs APOBEC1) was greater than 10.

“NNNNNNNNANNNNNNNN [m6A degenerate RNA (SEQ ID NO: 1)]” displayed a binding signal (fold loss of KD vs unlabeled Ab05) in [5] greater than 15. For the same substance, the Kd is less than 1 nM in the series on anti-m6A antibody Ab02 (setting [6]); less than 1 nM in the series on anti-m6A antibody Ab01 (m6A at position 9, plate ELISA, immobilised RNA, avidity, stated only as subnanomolar, 22C); less than 1 nM with anti-m6A antibody Ab05 (setting [6]).
